Measured values reported in patent US20250388643A1, “GLUCAGON-LIKE PEPTIDE-2 COMPOSITIONS AND METHODS OF MAKING AND USING SAME” (Amunix Pharmaceuticals, Inc., priority 2011, published 2025).

Assays:
[1] = system: indomethacin-induced intestinal inflammation in Wistar rats; assay: Rat Crohn's Disease indomethacin-induced intestinal inflammation model, Study 3; format: in vivo
Procedure: Study 3: A third indomethacin-induced inflammation study was performed to verify previous results and test additional dose regimens. Intestinal inflammation was induced in male Wistar rats (Harlan Sprague Dawley) using indomethacin administered on Days 0 and 1 of the experiment according to Table 21.
All treatments were administered per the schedule starting on Day-3 of the experiment. Body weights were determined daily. On Day 2 (24 hours post-2nd indomethacin dose), the animals were prepped for sacrifice and analysis. The small intestines were removed and the length of each was recorded. Quantitative histopathology was performed on a subset of samples. Rat small intestine samples consisted of a 3 cm section of proximal jejunum and a 3 cm section of mid-jejunum collected 15 cm and 30 cm from the pylorus, respectively. Samples were fixed in 10% neutral buffered formalin. Samples were trimmed into multiple sections without bias toward lesion presence or absence. These sections were placed in cassettes, embedded in paraffin, microtomed at approximately 4 microns thickness, and stained with hematoxylin and eosin (H&E). The slides were evaluated microscopically by a board certified veterinary pathologist and scored for villous height as well as infiltration/inflammation, mucosal atrophy, villi/crypt appearance, abscesses/ulceration. A 1 to 4 severity grading scale was used, where 1=minimal, 2=mild, 3=moderate, 4=marked/severe, reflecting the combination of the cellular reactions seen histopathologically. Small intestine length was analyzed with an ANOVA model with a Tukey/Kramer post-hoc test for pairwise comparisons, with significance at p=0.05. Non-parametric histology score variables were compared with the vehicle control using a Mann Whitney U test with a Bonferroni correction for the p-value to create an overall alpha of 0.05.

[2] = mouse, in vivo
Procedure: The fusion protein GLP2-2G-XTEN_AE864 was evaluated for its pharmacokinetic properties in C57Bl/6 mice following subcutaneous (SC) administration. Female C57Bl/6 mice were injected SC with 2 mg/kg (25 nmol/kg) of the GLP2-2G-XTEN (lot AP498A) at 0.25 mg/mL (8 mL/kg). Three mice were sacrificed at each of the following time points: Predose, 0.08, 4, 8, 24, 48, 72, 96 and 120 hours post-dose. Blood samples were collected from the mice and placed into prechilled heparinized tubes at each interval and were separated by centrifugation to recover the plasma. The samples were analyzed for fusion protein concentration, performed by both anti-XTEN/anti-XTEN sandwich ELISA (AS1405) and anti-GLP2/anti-XTEN sandwich ELISA (AS1717), and the results were analyzed using WinNonLin to obtain the PK parameters.

B1: GLP2-2G-XTEN_AE864: fusion protein of GLP-2 with glycine at position 2 linked at the C-terminus to XTEN AE864; sequence of FIG. 28 (SEQ ID NO: 798) (protein)
chain: HGDGSFSDEMNTILDNLAARDFINWLIQTKITDGGSPAGSPTSTEEGTSESATPESGPGTSTEPSEGSAPGSPAGSPTSTEEGTSTEPSEGSAPGTSTEPSEGSAPGTSESATPESGPGSEPATSGSETPGSEPATSGSETPGSPAGSPTSTEEGTSESATPESGPGTSTEPSEGSAPGTSTEPSEGSAPGSPAGSPTSTEEGTSTEPSEGSAPGTSTEPSEGSAPGTSESATPESGPGTSTEPSEGSAPGTSESATPESGPGSEPATSGSETPGTSTEPSEGSAPGTSTEPSEGSAPGTSESATPESGPGTSESATPESGPGSPAGSPTSTEEGTSESATPESGPGSEPATSGSETPGTSESATPESGPGTSTEPSEGSAPGTSTEPSEGSAPGTSTEPSEGSAPGTSTEPSEGSAPGTSTEPSEGSAPGTSTEPSEGSAPGSPAGSPTSTEEGTSTEPSEGSAPGTSESATPESGPGSEPATSGSETPGTSESATPESGPGSEPATSGSETPGTSESATPESGPGTSTEPSEGSAPGTSESATPESGPGSPAGSPTSTEEGSPAGSPTSTEEGSPAGSPTSTEEGTSESATPESGPGTSTEPSEGSAPGTSESATPESGPGSEPATSGSETPGTSESATPESGPGSEPATSGSETPGTSESATPESGPGTSTEPSEGSAPGSPAGSPTSTEEGTSESATPESGPGSEPATSGSETPGTSESATPESGPGSPAGSPTSTEEGSPAGSPTSTEEGTSTEPSEGSAPGTSESATPESGPGTSESATPESGPGTSESATPESGPGSEPATSGSETPGSEPATSGSETPGSPAGSPTSTEEGTSTEPSEGSAPGTSTEPSEGSAPGSEPATSGSETPGTSESATPESGPGTSTEPSEGSAPG
With B1 the small intestine length ([1]; compared to vehicle-treated diseased rats, FIG. 24A) was “increase in small intestine length”, the “efficacy by regimen compared with peptide” value ([1]; dosed once at 75 nmol/kg or three times at 25 nmol/kg) was “as effective as GLP2-2G peptide dosed ten times at 12.5 nmol/kg” and the villi height ([1]; fusion protein high (total dose 125 nmol/kg) and low (total dose 75 nmol/kg), FIG. 24B) was “significant increase in villi height”. The mucosal atrophy score ([1]; high and low dose, vs vehicle-treated diseased rats, FIG. 24C) was “significantly lower mucosal atrophy score”, the “efficacy in improving indomethacin-induced small intestine damage (histopathology)” value ([1]; rat, in vivo) was “as good or better than GLP2-2G peptide” and the “mucosal ulceration and mixed cell infiltrate” value ([1]; three treatment groups) was “not significant”. The Cl [2] was 0.07 mL/h, the “T ½” value [2] was 33.9 h and the Vd [2] was 0.14 L/kg.
